Data: article PMC3644619 (Gene, 2008)

How the values were obtained:
[1] = target: SF1 (steroidogenic factor 1) (UniProt Q04752 1-461); test: two-hybrid
[2] = target: T1, hormone-binding domain (HBD) of ERR1 (UniProt P11474 1-423); test: two-hybrid
T1 sequence (looked up): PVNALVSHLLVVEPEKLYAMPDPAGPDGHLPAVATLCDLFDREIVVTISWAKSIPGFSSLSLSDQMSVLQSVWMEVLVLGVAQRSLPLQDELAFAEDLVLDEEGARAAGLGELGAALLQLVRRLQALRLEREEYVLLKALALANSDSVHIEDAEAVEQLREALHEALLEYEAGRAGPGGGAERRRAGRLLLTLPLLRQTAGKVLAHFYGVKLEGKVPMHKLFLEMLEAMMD

SF1 (steroidogenic factor 1), sequence (Q04752 whole entry, the tested form may be a part): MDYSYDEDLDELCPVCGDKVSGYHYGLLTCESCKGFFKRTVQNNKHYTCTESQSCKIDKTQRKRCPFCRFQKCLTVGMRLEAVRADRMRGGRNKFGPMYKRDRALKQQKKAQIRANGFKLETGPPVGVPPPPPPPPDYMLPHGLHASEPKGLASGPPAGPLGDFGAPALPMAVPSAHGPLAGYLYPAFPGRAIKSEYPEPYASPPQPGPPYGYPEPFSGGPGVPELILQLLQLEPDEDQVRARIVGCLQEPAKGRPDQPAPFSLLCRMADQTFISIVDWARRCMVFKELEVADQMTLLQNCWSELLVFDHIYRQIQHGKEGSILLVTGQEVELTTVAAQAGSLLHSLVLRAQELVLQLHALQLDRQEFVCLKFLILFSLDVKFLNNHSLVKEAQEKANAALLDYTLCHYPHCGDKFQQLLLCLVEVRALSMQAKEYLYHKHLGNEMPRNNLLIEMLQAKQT

B1: PNRC1d (natural protein)
chain: not shown
fold increase of affinity compared to fl PNRC (two-hybrid β-galactosidase) [1]: > 10 fold
fold increase of affinity compared to fl PNRC (two-hybrid β-galactosidase) [2]: > 10 fold
